Source: article PMC8221791

Columns and labels:
[1] = biological target: recombinant Endothelial Protein C Receptor (EPCR) (UniProt Q9UNN8); assay: static adhesion assay of infected erythrocytes on spots of recombinant protein; recombinant receptor adsorbed as 20 ul spots on petri dishes in PBS overnight at 4°C (two-fold dilutions 10 to 0.31 ug/ml), blocked with Albumax; Percoll-purified trophozoite-stage infected HbAA RBCs, 4x10^6 cells per ml, 1 h at 37°C; washed, fixed, Giemsa-stained, counted per image; four-parameter log-logistic fit
[2] = biological target: recombinant Endothelial Protein C Receptor (EPCR) (UniProt Q9UNN8); assay: static adhesion assay of infected erythrocytes on spots of recombinant protein; recombinant receptor adsorbed as 20 ul spots on petri dishes in PBS overnight at 4°C (two-fold dilutions 10 to 0.31 ug/ml), blocked with Albumax; Percoll-purified trophozoite-stage infected HbAS (sickle-trait) RBCs, 4x10^6 cells per ml, 1 h at 37°C; washed, fixed, Giemsa-stained, counted per image; four-parameter log-logistic fit
recombinant CD36 [3] = biological target: recombinant CD36 (UniProt P16671); assay: static adhesion assay of infected erythrocytes on spots of recombinant protein; recombinant receptor adsorbed as 20 ul spots on petri dishes in PBS overnight at 4°C (two-fold dilutions 10 to 0.31 ug/ml), blocked with Albumax; Percoll-purified trophozoite-stage infected HbAA RBCs, 4x10^6 cells per ml, 1 h at 37°C; washed, fixed, Giemsa-stained, counted per image; four-parameter log-logistic fit
recombinant CD36 [4] = biological target: recombinant CD36 (UniProt P16671); assay: static adhesion assay of infected erythrocytes on spots of recombinant protein; recombinant receptor adsorbed as 20 ul spots on petri dishes in PBS overnight at 4°C (two-fold dilutions 10 to 0.31 ug/ml), blocked with Albumax; Percoll-purified trophozoite-stage infected HbAS (sickle-trait) RBCs, 4x10^6 cells per ml, 1 h at 37°C; washed, fixed, Giemsa-stained, counted per image; four-parameter log-logistic fit

UniProt P16671, sequence (P16671 whole entry): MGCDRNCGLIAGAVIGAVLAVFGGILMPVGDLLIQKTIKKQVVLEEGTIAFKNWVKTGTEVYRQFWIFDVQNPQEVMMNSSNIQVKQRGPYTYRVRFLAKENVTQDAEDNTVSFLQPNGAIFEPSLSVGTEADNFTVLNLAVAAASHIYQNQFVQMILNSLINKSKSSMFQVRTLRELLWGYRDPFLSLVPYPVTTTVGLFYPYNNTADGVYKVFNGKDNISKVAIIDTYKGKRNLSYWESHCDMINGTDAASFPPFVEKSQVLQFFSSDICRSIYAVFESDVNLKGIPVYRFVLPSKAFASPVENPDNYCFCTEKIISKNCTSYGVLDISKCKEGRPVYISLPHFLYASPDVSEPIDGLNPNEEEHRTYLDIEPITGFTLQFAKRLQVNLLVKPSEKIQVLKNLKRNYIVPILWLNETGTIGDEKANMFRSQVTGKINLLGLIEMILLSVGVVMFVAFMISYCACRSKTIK
UniProt Q9UNN8, sequence (Q9UNN8 18-210): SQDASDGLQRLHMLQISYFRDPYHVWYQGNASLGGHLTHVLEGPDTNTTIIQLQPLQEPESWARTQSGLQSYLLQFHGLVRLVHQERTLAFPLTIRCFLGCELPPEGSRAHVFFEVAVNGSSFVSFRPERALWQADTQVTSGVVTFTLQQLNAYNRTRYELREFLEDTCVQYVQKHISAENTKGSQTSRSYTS

Substance | EPCR spot concentration at estimated 50% adhesion [1] [µg/mL] | EPCR spot concentration at estimated 50% adhesion [2] [µg/mL] | CD36 spot concentration at estimated 50% adhesion (recombinant CD36 [3]) [µg/mL] | CD36 spot concentration at estimated 50% adhesion (recombinant CD36 [4]) [µg/mL]
IT4var20 PfEMP1 (EPCR-binding P. falciparum Erythrocyte Membrane Protein 1 variant of strain IT4) (natural protein) | 0.3 | 0.5 | – | –
IT4var30 PfEMP1 (CD36-binding P. falciparum Erythrocyte Membrane Protein 1 variant of strain IT4) (natural protein) | – | – | 2.5 | 2.7
